Assay results taken from publication PMC9427789.

Each substance was assayed against His-SUMO-FGF23 (N-terminal domain of human FGF23, wild type) (human) (UniProt Q9GZV9) (assay: ELISA).
His-SUMO-FGF23 (N-terminal domain of human FGF23, wild type) (human), sequence (Q9GZV9 25-204): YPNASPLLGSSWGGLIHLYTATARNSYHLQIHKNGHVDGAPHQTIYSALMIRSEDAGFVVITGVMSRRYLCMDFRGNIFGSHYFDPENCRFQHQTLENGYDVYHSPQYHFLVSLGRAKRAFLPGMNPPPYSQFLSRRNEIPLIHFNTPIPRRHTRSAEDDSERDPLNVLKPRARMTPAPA

Kd [nM]	Substance
0.7	Burosumab VL:S52D
0.73	Burosumab VL:S67Y
0.86	Burosumab VL:T69D
